In series [1] the test system is HeLa Kyoto. Briefly: solubility change mitosis vs G1/S (difference of NP-40 vs SDS log2 ratios) (log2 ratio difference); higher = more soluble in mitosis.
Series [2] relates to HeLa Kyoto. Briefly: thermal stability score vs G1/S (z-score of summed log2 fold changes over temperatures); higher = more thermally stable than in G1/S.
Series [3] concerns HeLa Kyoto. Briefly: solubility in G1/S (NP-40 vs SDS abundance) (log2 ratio); higher = more soluble. As to conditions: cell cycle stage: G1/S.
The subject of series [4] is HeLa Kyoto. Briefly: melting temperature (median over replicates), in situ; higher = more thermally stable.
Where [5] appears, read: cell cycle stage: early G1 (4.5 h after nocodazole release).
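Wherever melting temperature (median over replicates), in situ is given: HeLa Kyoto cells synchronized by double thymidine or nocodazole block, proteins quantified by TMT10plex mass spectrometry, three independent biological replicates.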
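Wherever solubility change mitosis vs G1/S (difference of NP-40 vs SDS log2 ratios) is given: synchronized HeLa Kyoto cells (double thymidine block for G1/S, nocodazole release for mitosis), protein amounts in NP-40 versus SDS lysates quantified by mass spectrometry, three biological replicates.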
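Wherever solubility in G1/S (NP-40 vs SDS abundance) is given: HeLa Kyoto cells arrested at G1/S by double thymidine block, proteins quantified by TMT10plex mass spectrometry in mild NP-40 versus SDS extracts, three biological replicates.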
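Wherever thermal stability score vs G1/S (z-score of summed log2 fold changes over temperatures) is given: synchronized HeLa Kyoto cells, proteins quantified by TMT10plex mass spectrometry, three biological replicates, mitosis taken 0.5 h after nocodazole release, G1/S directly after double thymidine block.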

Chain of MAP7D1 (chain, as listed by the source): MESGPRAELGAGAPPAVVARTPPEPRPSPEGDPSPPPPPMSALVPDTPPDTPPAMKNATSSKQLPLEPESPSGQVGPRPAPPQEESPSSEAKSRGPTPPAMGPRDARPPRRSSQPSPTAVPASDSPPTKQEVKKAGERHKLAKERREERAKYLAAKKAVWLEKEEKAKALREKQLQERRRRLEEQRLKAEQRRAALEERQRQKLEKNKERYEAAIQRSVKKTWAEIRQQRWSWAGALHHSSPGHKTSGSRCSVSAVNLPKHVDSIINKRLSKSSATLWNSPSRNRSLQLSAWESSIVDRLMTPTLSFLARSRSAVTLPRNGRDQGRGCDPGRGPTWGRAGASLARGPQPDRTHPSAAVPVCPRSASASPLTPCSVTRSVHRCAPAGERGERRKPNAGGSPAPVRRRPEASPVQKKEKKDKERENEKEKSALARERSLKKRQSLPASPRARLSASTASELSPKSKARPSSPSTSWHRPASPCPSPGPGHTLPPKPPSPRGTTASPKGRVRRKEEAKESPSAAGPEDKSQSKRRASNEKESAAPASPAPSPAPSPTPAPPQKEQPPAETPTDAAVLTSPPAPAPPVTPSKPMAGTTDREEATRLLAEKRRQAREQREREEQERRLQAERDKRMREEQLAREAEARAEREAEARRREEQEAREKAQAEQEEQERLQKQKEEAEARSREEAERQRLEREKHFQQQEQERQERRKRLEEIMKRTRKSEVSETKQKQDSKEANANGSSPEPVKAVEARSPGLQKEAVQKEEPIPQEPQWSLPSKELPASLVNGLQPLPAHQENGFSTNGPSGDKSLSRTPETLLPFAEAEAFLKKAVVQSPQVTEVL

For the substance “MANVPWAEVCEKFQAALALSRVELHKNPEKEPYKSKYSARALLEEVKALLGPAPEDEDERPEAEDGPGAGDHALGLPAEVVEPEGPVAQRAVRLAVIEFHLGVNHIDTEELSAGEEHLVKCLRLLRRYRLSHDCISLCIQAQNNLGILWSEREEIETAQAYLESSEALYNQYMKEVGSPPLDPTERFLPEEEKLTEQERSKRFEKVYTHNLYYLAQVYQHLEMFEKAAHYCHSTLKRQLEHNAYHPIEWAINAATLSQFYINKLCFMEARHCLSAANVIFGQTGKISATEDTPEAEGEVPELYHQRKGEIARCWIKYCLTLMQNAQLSMQDNIGELDLDKQSELRALRKKELDEEESIRKKAVQFGTGELCDAISAVEEKVSYLRPLDFEEARELFLLGQHYVFEAKEFFQIDGYVTDHIEVVQDHSALFKVLAFFETDMERRCKMHKRRIAMLEPLTVDLNPQYYLLVNRQIQFEIAHAYYDMMDLKVAIADRLRDPDSHIVKKINNLNKSALKYYQLFLDSLRDPNKVFPEHIGEDVLRPAMLAKFRVARLYGKIITADPKKELENLATSLEHYKFIVDYCEKHPEAAQEIEVELELSKEMVSLLPTKMERFRTKMALT [KIF1BP]”, the “solubility change mitosis (log2)” value in the series with HeLa Kyoto [1] was -0.161. For the same substance, the values for the thermal stability score in the series with HeLa Kyoto [2] (setting [5]) and in the series on HeLa Kyoto [2] (cell cycle stage: mitosis) were 0.769 and 2.03, respectively. Moreover, the “solubility in G1/S (log2)” value in the series on HeLa Kyoto [3] was found to be 0.141. The melting temperature in the series on HeLa Kyoto [4] (cell cycle stage: G1/S) and in the series with HeLa Kyoto [4] (cell cycle stage: mitosis) was 49 °C in each case.

Take MAP7D1: the “solubility change mitosis (log2)” value in the series with HeLa Kyoto [1] is 0.536. The thermal stability score with HeLa Kyoto [2] (setting [5]) is -1.09; in the series on HeLa Kyoto [2] (cell cycle stage: mitosis) it was -4.66. For the same substance, in the series on HeLa Kyoto [3], the “solubility in G1/S (log2)” value came out at 0.337. The results for the melting temperature in the series on HeLa Kyoto [4] (cell cycle stage: G1/S) and in the series on HeLa Kyoto [4] (cell cycle stage: mitosis) were 52.8 °C and 51.2 °C, respectively.

As to “MAPARCFSARLRTVFQGVGHWALSTWAGLKPSRLLPQRASPRLLSVGRADLAKHQELPGKKLLSEKKLKRYFVDYRRVLVCGGNGGAGASCFHSEPRKEFGGPDGGDGGNGGHVILRVDQQVKSLSSVLSRYQGFSGEDGGSKNCFGRSGAVLYIRVPVGTLVKEGGRVVADLSCVGDEYIAALGGAGGKGNRFFLANNNRAPVTCTPGQPGQQRVLHLELKTVAHAGMVGFPNAGKSSLLRAISNARPAVASYPFTTLKPHVGIVHYEGHLQIAVADIPGIIRGAHQNRGLGSAFLRHIERCRFLLFVVDLSQPEPWTQVDDLKYELEMYEKGLSARPHAIVANKIDLPEAQANLSQLRDHLGQEVIVLSALTGENLEQLLLHLKVLYDAYAEAELGQGRQPLRW [MTG2]”, in the series with HeLa Kyoto [1], the “solubility change mitosis (log2)” value worked out at 0.00581. In addition, the thermal stability score in the series with HeLa Kyoto [2] (setting [5]) was -0.446; with HeLa Kyoto [2] (cell cycle stage: mitosis) it was 0.103. Further, the “solubility in G1/S (log2)” value in the series with HeLa Kyoto [3] was determined as 0.239. For the same substance, the melting temperature was determined as 49.6 °C in the series on HeLa Kyoto [4] (cell cycle stage: G1/S) and 49.1 °C in the series with HeLa Kyoto [4] (cell cycle stage: mitosis).

For the substance “MAPDPVAAETAAQGPTPRYFTWDEVAQRSGCEERWLVIDRKVYNISEFTRRHPGGSRVISHYAGQDATDPFVAFHINKGLVKKYMNSLLIGELSPEQPSFEPTKNKELTDEFRELRATVERMGLMKANHVFFLLYLLHILLLDGAAWLTLWVFGTSFLPFLLCAVLLSAVQAQAGWLQHDFGHLSVFSTSKWNHLLHHFVIGHLKGAPASWWNHMHFQHHAKPNCFRKDPDINMHPFFFALGKILSVELGKQKKKYMPYNHQHKYFFLIGPPALLPLYFQWYIFYFVIQRKKWVDLAWMITFYVRFFLTYVPLLGLKAFLGLFFIVRFLESNWFVWVTQMNHIPMHIDHDRNMDWVSTQLQATCNVHKSAFNDWFSGHLNFQIEHHLFPTMPRHNYHKVAPLVQSLCAKHGIEYQSKPLLSAFADIIHSLKESGQLWLDAYLHQ [FADS1]”, the “solubility change mitosis (log2)” value in the series with HeLa Kyoto [1] was -0.092. Besides, the thermal stability score in the series with HeLa Kyoto [2] (setting [5]) was -0.752; with HeLa Kyoto [2] (cell cycle stage: mitosis) it was -0.737. For the same substance, the “solubility in G1/S (log2)” value with HeLa Kyoto [3] was -0.124. The melting temperature in the series on HeLa Kyoto [4] (cell cycle stage: G1/S) stood at 51.9 °C; in the series with HeLa Kyoto [4] (cell cycle stage: mitosis), 51.3 °C.

Regarding “MAPHDPGSLTTLVPWAAALLLALGVERALALPEICTQCPGSVQNLSKVAFYCKTTRELMLHARCCLNQKGTILGLDLQNCSLEDPGPNFHQAHTTVIIDLQANPLKGDLANTFRGFTQLQTLILPQHVNCPGGINAWNTITSYIDNQICQGQKNLCNNTGDPEMCPENGSCVPDGPGLLQCVCADGFHGYKCMRQGSFSLLMFFGILGATTLSVSILLWATQRRKAKTS [ATRAID]”, in the series with HeLa Kyoto [1], the “solubility change mitosis (log2)” value was 0.252. Further, the thermal stability score was found to be 0.782 in the series on HeLa Kyoto [2] (setting [5]) and 0.854 in the series on HeLa Kyoto [2] (cell cycle stage: mitosis). Besides, the “solubility in G1/S (log2)” value with HeLa Kyoto [3] was -0.19. For the same substance, the melting temperature turned out to be 53.9 °C with HeLa Kyoto [4] (cell cycle stage: G1/S) and 54.8 °C in the series with HeLa Kyoto [4] (cell cycle stage: mitosis).

In the case of “MAPLGGAPRLVLLFSGKRKSGKDFVTEALQSRLGADVCAVLRLSGPLKEQYAQEHGLNFQRLLDTSTYKEAFRKDMIRWGEEKRQADPGFFCRKIVEGISQPIWLVSDTRRVSDIQWFREAYGAVTQTVRVVALEQSRQQRGWVFTPGVDDAESECGLDNFGDFDWVIENHGVEQRLEEQLENLIEFIRSRL [PMVK]”, the “solubility change mitosis (log2)” value in the series on HeLa Kyoto [1] was -0.0243. For the same substance, the thermal stability score in the series on HeLa Kyoto [2] (setting [5]) came to 1.41; in the series on HeLa Kyoto [2] (cell cycle stage: mitosis) it was 1.71. In the series on HeLa Kyoto [3], the “solubility in G1/S (log2)” value was -0.0155. In addition, the melting temperature in the series on HeLa Kyoto [4] (cell cycle stage: G1/S) amounted to 46.6 °C; in the series with HeLa Kyoto [4] (cell cycle stage: mitosis), 47.8 °C.

In the case of “MAPLLLQLAVLGAALAAAALVLISIVAFTTATKMPALHRHEEEKFFLNAKGQKETLPSIWDSPTKQLSVVVPSYNEEKRLPVMMDEALSYLEKRQKRDPAFTYEVIVVDDGSKDQTSKVAFKYCQKYGSDKVRVITLVKNRGKGGAIRMGIFSSRGEKILMADADGATKFPDVEKLEKGLNDLQPWPNQMAIACGSRAHLEKESIAQRSYFRTLLMYGFHFLVWFLCVKGIRDTQCGFKLFTREAASRTFSSLHVERWAFDVELLYIAQFFKIPIAEIAVNWTEIEGSKLVPFWSWLQMGKDLLFIRLRYLTGAWRLEQTRKMN [ALG5]”, in the series with HeLa Kyoto [1], the “solubility change mitosis (log2)” value was -0.147. Moreover, the thermal stability score in the series with HeLa Kyoto [2] (setting [5]) is -0.322; with HeLa Kyoto [2] (cell cycle stage: mitosis), -1.32. In addition, in the series with HeLa Kyoto [3], the “solubility in G1/S (log2)” value is -0.514. Also, the melting temperature with HeLa Kyoto [4] (cell cycle stage: G1/S) came out at 53 °C; with HeLa Kyoto [4] (cell cycle stage: mitosis) it was 53.8 °C.

Regarding “MAPRRVRSFLRGLPALLLLLLFLGPWPAASHGGKYSREKNQPKPSPKRESGEEFRMEKLNQLWEKAQRLHLPPVRLAELHADLKIQERDELAWKKLKLDGLDEDGEKEARLIRNLNVILAKYGLDGKKDARQVTSNSLSGTQEDGLDDPRLEKLWHKAKTSGKFSGEELDKLWREFLHHKEKVHEYNVLLETLSRTEEIHENVISPSDLSDIKGSVLHSRHTELKEKLRSINQGLDRLRRVSHQGYSTEAEFEEPRVIDLWDLAQSANLTDKELEAFREELKHFEAKIEKHNHYQKQLEIAHEKLRHAESVGDGERVSRSREKHALLEGRTKELGYTVKKHLQDLSGRISRARHNEL [LRPAP1]”, the “solubility change mitosis (log2)” value in the series on HeLa Kyoto [1] is -0.0876. Besides, the thermal stability score is 2.72 with HeLa Kyoto [2] (setting [5]) and -0.375 in the series with HeLa Kyoto [2] (cell cycle stage: mitosis). Besides, in the series with HeLa Kyoto [3], the “solubility in G1/S (log2)” value is 0.724. In addition, the melting temperature with HeLa Kyoto [4] (cell cycle stage: G1/S) was found to be 55.3 °C; in the series on HeLa Kyoto [4] (cell cycle stage: mitosis) it was 54.1 °C.

(Values after the supplement of paper PMC5998384.)
